Source: PMC6555819, “Comprehensive study of nuclear receptor DNA binding provides a revised framework for understanding receptor specificity”

Legend:
[1] = target: RARa:RXRa (Homo sapiens, UniProt P10276;P19793 full;full); assay: no ligand; PBM; 270 nM : 90 nM RXRa; PBS pH 7.4, 2% milk, 0.02% Triton X-100, 1 mM DTT, BSA, 0.4 mg/ml salmon testes DNA; details: tags: His kept;His cleaved; copies: 1;1; label: surface-attached array probe
Procedure, shortened: (§1)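 Random background probes are the reference for binding z-scores. These scores derive from regression-normalized fluorescence on custom Agilent 4×180K protein-binding microarrays incubated 1 h with ligand-free nuclear receptor dimers. Binding was detected with antibodies against each partner (one per run).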

[2] = target: LXRa:RXRa (Homo sapiens, UniProt Q13133;P19793 full;full); assay: as above; details: tags: His kept;His cleaved; copies: 1;1; label: surface-attached array probe
Procedure, shortened: as §1

[3] = target: FXR:RXRa (Homo sapiens, UniProt Q96RI1;P19793 full;full); assay: as above; details: tags: His kept;His cleaved; copies: 1;1; label: surface-attached array probe
Procedure, shortened: as §1

[4] = target: LXRb:RXRa (Homo sapiens, UniProt P55055;P19793 full;full); assay: as above; details: tags: His kept;His cleaved; copies: 1;1; label: surface-attached array probe
Sequence of LXRb:RXRa (P55055 whole entry, chain 1 of 2): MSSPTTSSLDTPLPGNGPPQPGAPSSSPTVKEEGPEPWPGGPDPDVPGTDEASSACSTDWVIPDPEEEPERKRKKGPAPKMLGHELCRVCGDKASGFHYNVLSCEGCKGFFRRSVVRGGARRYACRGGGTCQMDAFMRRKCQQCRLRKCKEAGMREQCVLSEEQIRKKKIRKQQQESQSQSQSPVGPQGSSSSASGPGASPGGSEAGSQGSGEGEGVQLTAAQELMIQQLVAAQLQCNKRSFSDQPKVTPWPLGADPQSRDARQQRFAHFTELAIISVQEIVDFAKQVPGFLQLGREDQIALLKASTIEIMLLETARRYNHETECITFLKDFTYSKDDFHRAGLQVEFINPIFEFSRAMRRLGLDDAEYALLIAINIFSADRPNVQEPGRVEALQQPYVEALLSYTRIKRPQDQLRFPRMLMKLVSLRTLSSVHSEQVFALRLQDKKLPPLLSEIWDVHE
Sequence of LXRb:RXRa (P19793 whole entry, chain 2 of 2): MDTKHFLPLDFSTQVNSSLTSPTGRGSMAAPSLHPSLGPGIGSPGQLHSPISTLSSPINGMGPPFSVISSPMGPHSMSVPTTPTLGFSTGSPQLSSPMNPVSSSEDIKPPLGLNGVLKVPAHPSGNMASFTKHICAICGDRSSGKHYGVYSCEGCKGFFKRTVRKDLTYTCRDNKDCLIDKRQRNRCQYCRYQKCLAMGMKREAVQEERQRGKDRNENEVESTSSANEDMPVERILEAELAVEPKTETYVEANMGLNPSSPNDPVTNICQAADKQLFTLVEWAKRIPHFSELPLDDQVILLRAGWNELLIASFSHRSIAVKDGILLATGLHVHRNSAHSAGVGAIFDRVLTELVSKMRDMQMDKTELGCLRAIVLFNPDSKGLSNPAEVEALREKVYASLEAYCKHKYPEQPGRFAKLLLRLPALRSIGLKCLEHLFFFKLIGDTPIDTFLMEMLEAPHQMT
Procedure, shortened: as §1

[5] = target: RARg:RXRa (Homo sapiens, UniProt P13631;P19793 full;full); assay: as above; details: tags: His kept;His cleaved; copies: 1;1; label: surface-attached array probe
Sequence of RARg:RXRa (P13631 whole entry, chain 1 of 2): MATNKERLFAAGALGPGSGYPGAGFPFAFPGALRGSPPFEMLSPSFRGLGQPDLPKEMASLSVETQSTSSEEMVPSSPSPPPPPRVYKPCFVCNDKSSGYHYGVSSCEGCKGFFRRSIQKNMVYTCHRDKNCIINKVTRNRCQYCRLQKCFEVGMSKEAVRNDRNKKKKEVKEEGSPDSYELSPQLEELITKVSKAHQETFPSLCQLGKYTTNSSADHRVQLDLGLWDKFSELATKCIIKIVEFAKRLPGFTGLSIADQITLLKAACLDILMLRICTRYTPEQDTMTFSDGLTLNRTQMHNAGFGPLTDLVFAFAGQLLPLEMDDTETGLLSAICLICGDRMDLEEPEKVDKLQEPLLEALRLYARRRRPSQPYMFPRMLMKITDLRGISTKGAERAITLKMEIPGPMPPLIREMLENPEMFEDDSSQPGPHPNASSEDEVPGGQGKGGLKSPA
Sequence of RARg:RXRa (P19793 whole entry, chain 2 of 2): as the sequence (P19793 whole entry, chain 2 of 2) above
Procedure, shortened: as §1

[6] = target: PXR:RXRa (Homo sapiens, UniProt O75469;P19793 full;full); assay: as above; details: tags: His kept;His cleaved; copies: 1;1; label: surface-attached array probe
Sequence of PXR:RXRa (O75469 whole entry, chain 1 of 2): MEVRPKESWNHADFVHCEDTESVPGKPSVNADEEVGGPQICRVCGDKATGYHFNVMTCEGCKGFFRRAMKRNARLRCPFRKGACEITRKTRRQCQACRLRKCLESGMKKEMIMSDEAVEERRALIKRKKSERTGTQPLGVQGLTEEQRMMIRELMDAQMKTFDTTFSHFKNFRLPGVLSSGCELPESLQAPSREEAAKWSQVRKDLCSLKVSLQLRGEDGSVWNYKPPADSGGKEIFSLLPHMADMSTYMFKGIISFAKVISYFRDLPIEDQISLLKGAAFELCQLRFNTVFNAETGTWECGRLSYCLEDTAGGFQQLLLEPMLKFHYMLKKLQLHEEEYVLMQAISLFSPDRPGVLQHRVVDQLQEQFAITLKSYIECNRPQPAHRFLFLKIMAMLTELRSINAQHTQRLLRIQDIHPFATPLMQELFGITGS
Sequence of PXR:RXRa (P19793 whole entry, chain 2 of 2): as the sequence (P19793 whole entry, chain 2 of 2) above
Procedure, shortened: as §1

[7] = target: VDR:RXRa (Homo sapiens, UniProt P11473;P19793 full;full); assay: as above; details: tags: His kept;His cleaved; copies: 1;1; label: surface-attached array probe
Sequence of VDR:RXRa (P11473 whole entry, chain 1 of 2): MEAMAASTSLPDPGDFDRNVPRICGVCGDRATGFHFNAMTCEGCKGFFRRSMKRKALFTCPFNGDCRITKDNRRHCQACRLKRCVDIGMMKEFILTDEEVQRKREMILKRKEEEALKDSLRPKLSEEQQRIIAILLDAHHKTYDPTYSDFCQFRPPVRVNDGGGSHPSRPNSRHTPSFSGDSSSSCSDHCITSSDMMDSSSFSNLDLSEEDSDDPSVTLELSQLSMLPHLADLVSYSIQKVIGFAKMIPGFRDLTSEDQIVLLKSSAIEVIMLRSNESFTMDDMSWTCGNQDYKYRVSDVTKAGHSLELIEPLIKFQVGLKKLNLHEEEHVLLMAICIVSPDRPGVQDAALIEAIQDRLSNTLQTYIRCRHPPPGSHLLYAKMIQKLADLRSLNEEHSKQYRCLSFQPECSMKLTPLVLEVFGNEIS
Sequence of VDR:RXRa (P19793 whole entry, chain 2 of 2): as the sequence (P19793 whole entry, chain 2 of 2) above
Procedure, shortened: as §1

[8] = target: PPARa:RXRa (Homo sapiens, UniProt Q07869;P19793 full;full); assay: as above; details: tags: GST kept;His cleaved; copies: 1;1; label: surface-attached array probe
Sequence of PPARa:RXRa (Q07869 whole entry, chain 1 of 2): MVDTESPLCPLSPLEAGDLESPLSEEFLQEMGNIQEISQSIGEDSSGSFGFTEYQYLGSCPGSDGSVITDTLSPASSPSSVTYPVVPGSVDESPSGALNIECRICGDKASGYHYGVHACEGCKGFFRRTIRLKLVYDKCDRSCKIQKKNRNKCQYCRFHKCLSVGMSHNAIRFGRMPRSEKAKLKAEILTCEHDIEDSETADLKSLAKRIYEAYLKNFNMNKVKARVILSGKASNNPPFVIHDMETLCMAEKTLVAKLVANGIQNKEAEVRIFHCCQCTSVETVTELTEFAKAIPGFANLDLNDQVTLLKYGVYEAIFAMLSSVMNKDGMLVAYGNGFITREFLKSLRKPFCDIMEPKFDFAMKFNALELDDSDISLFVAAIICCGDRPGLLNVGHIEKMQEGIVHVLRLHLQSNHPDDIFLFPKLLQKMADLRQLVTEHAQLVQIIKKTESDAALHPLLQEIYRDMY
Sequence of PPARa:RXRa (P19793 whole entry, chain 2 of 2): as the sequence (P19793 whole entry, chain 2 of 2) above
Procedure, shortened: as §1

[9] = target: RXRa (Homo sapiens, UniProt P19793); assay: no ligand; PBM; 180 nM; PBS pH 7.4, 2% milk, 0.02% Triton X-100, 1 mM DTT, BSA, 0.4 mg/ml salmon testes DNA; details: tags: His cleaved; chain copies: 2; label: surface-attached array probe
[10] = target: RARb:RXRa (Homo sapiens, UniProt P10826;P19793 full;full); assay: no ligand; PBM; 270 nM : 90 nM RXRa; PBS pH 7.4, 2% milk, 0.02% Triton X-100, 1 mM DTT, BSA, 0.4 mg/ml salmon testes DNA; details: tags: His kept;His cleaved; copies: 1;1; label: surface-attached array probe
Procedure, shortened: as §1

Binder | binding signal [1] | binding signal [2] | binding signal [3] | binding signal [4] | binding signal [5] | binding signal [6] | binding signal [7] | binding signal [8] | binding signal [9] | binding signal [10]
NRC3_wobSeed114_DR4_A8G_o1 (dsDNA) DNA 1: GCAATACGGGGTCATCGTAGGCCAGAGTACGCACAGGCGATTGACAGCGTAGAATGAAGG DNA 2: CCTTCATTCTACGCTGTCAATCGCCTGTGCGTACTCTGGCCTACGATGACCCCGTATTGC | 7.2 PBM z-score against 500 random probes | 7.63 PBM z-score against 500 random probes | 8.6 PBM z-score against 500 random probes | 6.75 PBM z-score against 500 random probes | 7.44 PBM z-score against 500 random probes | 6.64 PBM z-score against 500 random probes | 7.09 PBM z-score against 500 random probes | 6.87 PBM z-score against 500 random probes | 9.29 PBM z-score against 500 random probes | 
NRC3_wobSeed53_DR2_T21C_o1 (dsDNA) DNA 1: GCCCTTACGGGTCACGAGGTCATAGCACGACGAGCGGCGATTGACAGCGTAGAATGAAGG DNA 2: CCTTCATTCTACGCTGTCAATCGCCGCTCGTCGTGCTATGACCTCGTGACCCGTAAGGGC | 8.05 PBM z-score against 500 random probes |  | 8.01 PBM z-score against 500 random probes |  | 7.59 PBM z-score against 500 random probes | 6.58 PBM z-score against 500 random probes | 6.6 PBM z-score against 500 random probes | 6.48 PBM z-score against 500 random probes | 8.57 PBM z-score against 500 random probes | 
NRC3_wobSeed85_DR3_G15T_o1 (dsDNA) DNA 1: GCCGTCCAAGGTCATAGAGGTCAGTGAATGCCGAGTGCGATTGACAGCGTAGAATGAAGG DNA 2: CCTTCATTCTACGCTGTCAATCGCACTCGGCATTCACTGACCTCTATGACCTTGGACGGC | 7.13 PBM z-score against 500 random probes |  | 7.72 PBM z-score against 500 random probes |  |  | 6.83 PBM z-score against 500 random probes | 7.93 PBM z-score against 500 random probes |  |  | 
NRC3_wobSeed123_DR5_A12T_o1 (dsDNA) DNA 1: GCCCTCGGAGGTCAACAGGAGGTCAGAGCTGCCAGAGCGATTGACAGCGTAGAATGAAGG DNA 2: CCTTCATTCTACGCTGTCAATCGCTCTGGCAGCTCTGACCTCCTGTTGACCTCCGAGGGC | 7.44 PBM z-score against 500 random probes | 6.72 PBM z-score against 500 random probes | 7.97 PBM z-score against 500 random probes |  | 8.86 PBM z-score against 500 random probes | 6.48 PBM z-score against 500 random probes |  | 6.94 PBM z-score against 500 random probes |  | 5.85 PBM z-score against 500 random probes
NRC3_wobSeed26_DR1_A23G_o1 (dsDNA) DNA 1: GCTCTAGTTGGTCAAAGGTCACGCACTCGAAATGCGGCGATTGACAGCGTAGAATGAAGG DNA 2: CCTTCATTCTACGCTGTCAATCGCCGCATTTCGAGTGCGTGACCTTTGACCAACTAGAGC | 8.13 PBM z-score against 500 random probes |  |  | 6.1 PBM z-score against 500 random probes | 7.77 PBM z-score against 500 random probes | 6.52 PBM z-score against 500 random probes |  |  |  | 5.6 PBM z-score against 500 random probes
NRC3_wobSeed109_DR4_C7T_o1 (dsDNA) DNA 1: GCCGTCTAAGGTCATAGGAGGTCAGTGAAGACAGATGCGATTGACAGCGTAGAATGAAGG DNA 2: CCTTCATTCTACGCTGTCAATCGCATCTGTCTTCACTGACCTCCTATGACCTTAGACGGC | 7.11 PBM z-score against 500 random probes | 8.01 PBM z-score against 500 random probes | 8.24 PBM z-score against 500 random probes |  |  | 7.34 PBM z-score against 500 random probes |  |  |  | 
NRC3_wobSeed97_DR4_C7A_o1 (dsDNA) DNA 1: GCCAAAATAGGTCACGAAAGGTCAAAGTCGAATGACGCGATTGACAGCGTAGAATGAAGG DNA 2: CCTTCATTCTACGCTGTCAATCGCGTCATTCGACTTTGACCTTTCGTGACCTATTTTGGC | 8.32 PBM z-score against 500 random probes |  | 8.43 PBM z-score against 500 random probes | 7.91 PBM z-score against 500 random probes | 8.41 PBM z-score against 500 random probes | 7.78 PBM z-score against 500 random probes | 7.26 PBM z-score against 500 random probes |  |  | 
NRC3_wobSeed29_DR1_C8G_o1 (dsDNA) DNA 1: GCGCTTAGGGGTCAAAGGTTATAGCATGAATAGAATGCGATTGACAGCGTAGAATGAAGG DNA 2: CCTTCATTCTACGCTGTCAATCGCATTCTATTCATGCTATAACCTTTGACCCCTAAGCGC | 9.11 PBM z-score against 500 random probes | 7.36 PBM z-score against 500 random probes | 9.03 PBM z-score against 500 random probes | 7.75 PBM z-score against 500 random probes | 8.66 PBM z-score against 500 random probes | 7.35 PBM z-score against 500 random probes | 7.19 PBM z-score against 500 random probes | 7.64 PBM z-score against 500 random probes | 10.6 PBM z-score against 500 random probes | 5.84 PBM z-score against 500 random probes
NRC3_wobSeed29_DR1_C8A_o1 (dsDNA) DNA 1: GCGCTTAAGGGTCAAAGGTTATAGCATGAATAGAATGCGATTGACAGCGTAGAATGAAGG DNA 2: CCTTCATTCTACGCTGTCAATCGCATTCTATTCATGCTATAACCTTTGACCCTTAAGCGC | 9.1 PBM z-score against 500 random probes |  | 8.78 PBM z-score against 500 random probes | 6.56 PBM z-score against 500 random probes | 7.9 PBM z-score against 500 random probes | 6.86 PBM z-score against 500 random probes |  |  |  | 5.58 PBM z-score against 500 random probes
NRC3_random_hg19_25_o1 (dsDNA) DNA 1: GCGAGCCACCACGCCTGGCCTCTCCGATCTCCAACTGCGATTGACAGCGTAGAATGAAGG DNA 2: CCTTCATTCTACGCTGTCAATCGCAGTTGGAGATCGGAGAGGCCAGGCGTGGTGGCTCGC | -0.44 PBM z-score against 500 random probes | -0.38 PBM z-score against 500 random probes |  | -0.09 PBM z-score against 500 random probes |  | -0.45 PBM z-score against 500 random probes |  |  |  | 
NRC3_wobSeed89_DR3_G16A_o1 (dsDNA) DNA 1: GCCTATGTAGGTTAAAGGGGTCATTCAGTTTGAAAGGCGATTGACAGCGTAGAATGAAGG DNA 2: CCTTCATTCTACGCTGTCAATCGCCTTTCAAACTGAATGACCCCTTTAACCTACATAGGC | 7.03 PBM z-score against 500 random probes |  |  |  |  | 6.77 PBM z-score against 500 random probes | 8.06 PBM z-score against 500 random probes |  |  | 
NRC3_wobSeed41_DR1_A15G_o1 (dsDNA) DNA 1: GCATATGTAGGTTAGGGGTCATTCAGGTTGGTTCGCGCGATTGACAGCGTAGAATGAAGG DNA 2: CCTTCATTCTACGCTGTCAATCGCGCGAACCAACCTGAATGACCCCTAACCTACATATGC | 7.24 PBM z-score against 500 random probes |  |  | 5.79 PBM z-score against 500 random probes |  | 6.45 PBM z-score against 500 random probes | 6.69 PBM z-score against 500 random probes |  |  | 
NRC3_random_hg19_33_o1 (dsDNA) DNA 1: GCATCTGCATAGAGCTAGAGCTATTGATTCAAAGAGGCGATTGACAGCGTAGAATGAAGG DNA 2: CCTTCATTCTACGCTGTCAATCGCCTCTTTGAATCAATAGCTCTAGCTCTATGCAGATGC | -1.05 PBM z-score against 500 random probes |  |  |  |  | -1.09 PBM z-score against 500 random probes |  |  |  | -1.35 PBM z-score against 500 random probes
NRC3_wobSeed18_DR0_A8G_o1 (dsDNA) DNA 1: GCGATACGGGGTCAAGGCCAGAGTACGCGTATTGATGCGATTGACAGCGTAGAATGAAGG DNA 2: CCTTCATTCTACGCTGTCAATCGCATCAATACGCGTACTCTGGCCTTGACCCCGTATCGC | 7.56 PBM z-score against 500 random probes |  | 8.08 PBM z-score against 500 random probes | 5.96 PBM z-score against 500 random probes |  | 6.46 PBM z-score against 500 random probes |  | 6.56 PBM z-score against 500 random probes | 8.69 PBM z-score against 500 random probes | 
NRC3_random_hg19_391_o1 (dsDNA) DNA 1: GCTAGATATGAGTCTGGCTTGCTGCTATCTACTTCAGCGATTGACAGCGTAGAATGAAGG DNA 2: CCTTCATTCTACGCTGTCAATCGCTGAAGTAGATAGCAGCAAGCCAGACTCATATCTAGC | -0.46 PBM z-score against 500 random probes |  |  | -0.73 PBM z-score against 500 random probes |  | -0.47 PBM z-score against 500 random probes |  |  |  | 
